Molecular target: recombinant sAPPα, human, amino acids 19-613 (UniProt P05067)
Sequence (P05067 19-613): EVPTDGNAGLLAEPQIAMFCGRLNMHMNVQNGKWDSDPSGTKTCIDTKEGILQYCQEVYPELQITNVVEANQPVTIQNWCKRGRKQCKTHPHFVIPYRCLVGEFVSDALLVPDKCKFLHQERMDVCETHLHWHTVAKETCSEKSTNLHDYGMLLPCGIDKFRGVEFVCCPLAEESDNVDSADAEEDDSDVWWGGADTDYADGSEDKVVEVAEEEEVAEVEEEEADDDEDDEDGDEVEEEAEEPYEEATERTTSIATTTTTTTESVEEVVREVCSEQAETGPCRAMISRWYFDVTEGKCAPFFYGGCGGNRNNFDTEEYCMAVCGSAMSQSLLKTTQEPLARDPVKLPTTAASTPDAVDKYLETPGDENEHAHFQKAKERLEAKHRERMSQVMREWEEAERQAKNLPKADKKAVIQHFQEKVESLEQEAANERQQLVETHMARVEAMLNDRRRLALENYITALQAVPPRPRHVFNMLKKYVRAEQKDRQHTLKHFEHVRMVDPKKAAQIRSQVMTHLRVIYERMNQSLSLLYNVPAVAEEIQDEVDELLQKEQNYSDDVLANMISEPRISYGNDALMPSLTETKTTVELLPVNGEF

Sequence of Recombinant Human Cathepsin D (chain, as listed by the source): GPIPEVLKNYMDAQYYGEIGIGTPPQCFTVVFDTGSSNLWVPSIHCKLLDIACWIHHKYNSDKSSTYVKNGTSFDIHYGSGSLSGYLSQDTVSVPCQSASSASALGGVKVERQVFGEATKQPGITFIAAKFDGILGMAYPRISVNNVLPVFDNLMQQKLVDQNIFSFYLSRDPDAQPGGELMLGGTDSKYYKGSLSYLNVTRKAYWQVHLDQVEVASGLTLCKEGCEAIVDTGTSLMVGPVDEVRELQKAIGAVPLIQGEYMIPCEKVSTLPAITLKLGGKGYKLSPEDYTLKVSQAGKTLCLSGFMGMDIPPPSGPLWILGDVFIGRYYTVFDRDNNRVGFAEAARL

Substance: Recombinant Human Cathepsin D
- Cat D activity (fluorogenic substrate): sAPPα elicited no inhibition of Cat D activity

Source: US20220305006
